Reference: the Immune Epitope Database (IEDB)

Columns and labels:
[1] = molecular target: HLA-A*01:01; experiment: IEDB peptide-MHC binding, purified MHC/competitive/radioactivity; filed as Kd, often an IC50 or EC50 that approximates it; ≥ and ≤ were set here for values at or beyond the usual limits of such assays
[2] = molecular target: HLA-A*23:01; experiment: as above
[3] = molecular target: HLA-A*24:02; experiment: as above
[4] = molecular target: HLA-A*26:01; experiment: as above
[5] = molecular target: HLA-A*29:02; experiment: as above
[6] = molecular target: HLA-A*30:02; experiment: as above
[7] = molecular target: HLA-A*24:02; experiment: IEDB peptide-MHC binding, purified MHC/competitive/fluorescence; ≥ and ≤ were set here for values at or beyond the usual limits of such assays
[8] = molecular target: HLA-B*51:01; experiment: IEDB peptide-MHC binding, purified MHC/competitive/radioactivity; filed as Kd, often an IC50 or EC50 that approximates it; ≥ and ≤ were set here for values at or beyond the usual limits of such assays
[9] = molecular target: HLA-A*32:01; experiment: as above
[10] = molecular target: HLA-B*15:01; experiment: as above
[11] = molecular target: HLA-A*30:01; experiment: as above; conditions: source organism: Mammarenavirus brazilense
[12] = molecular target: HLA-A*26:01; experiment: IEDB peptide-MHC binding, purified MHC/direct/fluorescence; filed as Kd, often an IC50 or EC50 that approximates it; ≥ and ≤ were set here for values at or beyond the usual limits of such assays; conditions: source organism: Salmonella enterica subsp. enterica serovar Typhimurium
[13] = molecular target: HLA-B*40:01; experiment: IEDB peptide-MHC binding, purified MHC/competitive/radioactivity; filed as Kd, often an IC50 or EC50 that approximates it; ≥ and ≤ were set here for values at or beyond the usual limits of such assays
[14] = molecular target: HLA-A*02:01; experiment: IEDB peptide-MHC binding, purified MHC/competitive/fluorescence; ≥ and ≤ were set here for values at or beyond the usual limits of such assays; conditions: source organism: Zaire ebolavirus
[15] = molecular target: HLA-B*35:01; experiment: IEDB peptide-MHC binding, purified MHC/competitive/radioactivity; filed as Kd, often an IC50 or EC50 that approximates it; ≥ and ≤ were set here for values at or beyond the usual limits of such assays; conditions: source organism: Dengue virus 3 Martinique/1243/1999
[16] = molecular target: HLA-A*03:01; experiment: as above; conditions: source organism: SARS coronavirus Tor2
[17] = molecular target: HLA-A*11:01; experiment: as above; conditions: source organism: SARS coronavirus Tor2
[18] = molecular target: HLA-A*31:01; experiment: as above; conditions: source organism: SARS coronavirus Tor2
[19] = molecular target: HLA-A*33:01; experiment: as above; conditions: source organism: SARS coronavirus Tor2
[20] = molecular target: HLA-A*68:01; experiment: as above; conditions: source organism: SARS coronavirus Tor2
[21] = molecular target: HLA-B*08:01; experiment: as above
[22] = molecular target: HLA-B*46:01; experiment: IEDB peptide-MHC binding, purified MHC/competitive/fluorescence; filed as Kd, often an IC50 or EC50 that approximates it; ≥ and ≤ were set here for values at or beyond the usual limits of such assays; conditions: source organism: Entamoeba histolytica HM-1:IMSS
[23] = source organism: SARS coronavirus Tor2
[24] = source organism: Dengue virus 1 Brazil/97-11/1997
[25] = source organism: Vaccinia virus Copenhagen
[26] = source organism: Lymphocytic choriomeningitis virus (strain Armstrong)
[27] = source organism: Mammarenavirus brazilense
[28] = source organism: Vaccinia virus WR
[29] = source organism: Dengue virus 2 Jamaica/1409/1983
[30] = source organism: Mammarenavirus guanaritoense
[31] = source organism: Dengue virus 3 Martinique/1243/1999
[32] = source organism: Mammarenavirus whitewaterense
[33] = source organism: Mammarenavirus juninense

NYTQHTSSM
Kd [1, 23]: ≥ 57000 nM
Kd [2, 23]: ≥ 81700 nM
Kd [3, 23]: ≥ 91800 nM
Kd [4, 23]: 16300 nM
Kd [5, 23]: ≥ 45200 nM
Kd [6, 23]: ≥ 81100 nM

IMSKDKPTI
IC50 ([7]; source organism: West Nile virus): 1980 nM

KPWDVIPMV
Kd [8, 24]: 1110 nM

LILSCIFAF
Kd [9, 25]: 427 nM
Kd [10, 25]: 543 nM

KFLTNKLLL
Kd [1, 23]: ≥ 78100 nM
Kd [2, 23]: 379 nM
Kd [3, 23]: 1090 nM
Kd [4, 23]: ≥ 61000 nM
Kd [5, 23]: ≥ 24200 nM
Kd [6, 23]: ≥ 27300 nM

VLYSYILFL
Kd [10, 25]: 559 nM

WCSQTSYQYL
Kd [1, 26]: 1040 nM
Kd [2, 26]: 8290 nM
Kd [3, 26]: 15900 nM
Kd [4, 26]: ≥ 69700 nM
Kd [5, 26]: 19000 nM
Kd [6, 26]: ≥ 29600 nM

KVNACHHNY
Kd [1, 27]: 3840 nM
Kd [4, 27]: ≥ 77900 nM
Kd [5, 27]: 115 nM
Kd [11]: 501 nM
Kd [6, 27]: 11.7 nM
Kd [9, 27]: 445 nM

KVKSCLCSF
Kd [10, 28]: 16.6 nM

LAVWNRVWI
Kd [8, 29]: 4950 nM

RVKLGLGIM
Kd [12]: 1300 nM

SETFSMGLL
Kd ([13]; source organism: Dengue virus 4 Philippines/H241/1956): 3.53 nM

LIWKVNPEI
IC50 [14]: 426 nM
IC50 ([7]; source organism: Zaire ebolavirus): 1310 nM

VEDSRFWEL
Kd [13, 29]: 4280 nM

GPTPELEEEM
Kd [15]: 4170 nM

TDSPETHHY
Kd [1, 30]: 16800 nM
Kd [2, 30]: ≥ 77700 nM
Kd [3, 30]: ≥ 77500 nM
Kd [4, 30]: ≥ 77900 nM
Kd [5, 30]: ≥ 78900 nM
Kd [6, 30]: 9320 nM

SMMGFKMNY
Kd [1, 23]: 3960 nM
Kd [16]: 4.89 nM
Kd [17]: 10.6 nM
Kd [2, 23]: 7550 nM
Kd [3, 23]: 9360 nM
Kd [4, 23]: 3900 nM
Kd [5, 23]: 13.9 nM
Kd [6, 23]: 10.3 nM
Kd [18]: 213 nM
Kd [19]: 775 nM
Kd [20]: 10600 nM

LATLRKLCI
Kd [21, 31]: 359 nM
Kd [8, 31]: 2530 nM

LPLPWTSGA
Kd [8, 24]: 926 nM

WDIKDPSLL
Kd [1, 32]: ≥ 42300 nM
Kd [2, 32]: ≥ 77700 nM
Kd [3, 32]: ≥ 77500 nM
Kd [4, 32]: ≥ 77900 nM
Kd [5, 32]: ≥ 27600 nM
Kd [6, 32]: ≥ 34800 nM

ESKMSFLPI
Kd [21, 28]: 1.06 nM
Kd [10, 28]: 358 nM

AGSKYIHCF
Kd [1, 33]: 808 nM
Kd [2, 33]: ≥ 21400 nM
Kd [3, 33]: 5370 nM
Kd [4, 33]: ≥ 77900 nM
Kd [5, 33]: ≥ 78900 nM
Kd [6, 33]: 6500 nM

IAKGIDAEF
Kd [22]: 168 nM
